Here are results for eight molecules from publication PMC4995099, “Drosophila Nanos acts as a molecular clamp that modulates the RNA-binding and repression activities of Pumilio”.

In series [1] the target is T1, Drosophila Pum RNA-binding domain (amino acids 1091–1426), crystallisation construct (Drosophila melanogaster) (UniProt P25822).
T1 sequence: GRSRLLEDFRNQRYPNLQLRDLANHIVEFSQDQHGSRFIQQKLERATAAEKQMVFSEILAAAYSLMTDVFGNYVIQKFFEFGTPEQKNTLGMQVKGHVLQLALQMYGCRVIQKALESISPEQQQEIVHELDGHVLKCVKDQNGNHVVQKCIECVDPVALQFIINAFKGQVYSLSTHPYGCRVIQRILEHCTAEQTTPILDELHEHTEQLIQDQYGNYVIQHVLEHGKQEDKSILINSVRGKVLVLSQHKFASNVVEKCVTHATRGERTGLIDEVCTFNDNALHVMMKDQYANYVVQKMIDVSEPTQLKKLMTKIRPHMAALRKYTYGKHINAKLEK

For series [2], the target named is T2, Pum PUM-HD WT (EMSA) (UniProt P25822 1091-1426).
T2 sequence: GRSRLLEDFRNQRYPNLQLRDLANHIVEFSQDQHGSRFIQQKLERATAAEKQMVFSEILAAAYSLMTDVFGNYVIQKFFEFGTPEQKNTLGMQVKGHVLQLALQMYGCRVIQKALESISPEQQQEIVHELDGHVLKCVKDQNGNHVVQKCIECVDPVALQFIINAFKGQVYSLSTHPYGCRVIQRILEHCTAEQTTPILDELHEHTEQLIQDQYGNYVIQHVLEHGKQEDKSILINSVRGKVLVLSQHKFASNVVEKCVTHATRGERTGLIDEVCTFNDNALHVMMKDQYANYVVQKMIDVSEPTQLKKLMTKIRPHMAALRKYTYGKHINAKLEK
Kind of series: EMSA; no stable binding; EMSA: 50 mM Tris-HCl pH 7.6, 150 mM NaCl, 2 mM DTT, 2 ug/mL BSA, 0.01% Igepal CA-630, 0.02% bromophenol blue, 20% glycerol, 3 h at 4 C; 1 nM Cy5 RNA or 0.3 nM 32P RNA. The conditions noted are these: protein: recombinant; tags: N-terminal 3xFLAG; Halo-tag removed by TEV; label: 5' 32P.

Series [3] addresses T3, Pum PUM-HD WT (EMSA);Nos ZC WT (EMSA) (Drosophila melanogaster?;Drosophila …, UniProt P25822;P25724 1091-1426;289-401, |).
T3 sequence 1: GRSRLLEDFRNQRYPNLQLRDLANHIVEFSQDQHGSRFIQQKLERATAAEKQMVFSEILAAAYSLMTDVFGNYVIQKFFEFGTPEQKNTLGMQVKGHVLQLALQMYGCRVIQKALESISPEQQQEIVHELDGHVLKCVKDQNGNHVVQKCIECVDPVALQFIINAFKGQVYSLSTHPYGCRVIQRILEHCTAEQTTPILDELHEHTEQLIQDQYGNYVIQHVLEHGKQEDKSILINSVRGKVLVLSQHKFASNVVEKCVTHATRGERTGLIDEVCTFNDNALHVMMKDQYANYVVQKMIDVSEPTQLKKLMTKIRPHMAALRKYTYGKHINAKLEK
T3 sequence 2: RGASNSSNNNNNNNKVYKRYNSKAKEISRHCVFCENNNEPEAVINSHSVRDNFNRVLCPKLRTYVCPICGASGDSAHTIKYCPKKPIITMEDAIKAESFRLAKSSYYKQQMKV
Kind of series: EMSA; Pum titrated, 1 uM Nos ZC constant; EMSA: 50 mM Tris-HCl pH 7.6, 150 mM NaCl, 2 mM DTT, 2 ug/mL BSA, 0.01% Igepal CA-630, 0.02% bromophenol blue, 20% glycerol, 3 h at 4 C; 1 nM Cy5 RNA or 0.3 nM 32P RNA. The conditions noted are these: protein: recombinant;recombinant, tags: N-terminal 3xFLAG, Halo-tag removed by TEV;C-terminal V5, copies: 1;1, label: 5' 32P. A general note: Mobility shift assays separate free from complexed probe on a gel.

The target in series [4] is T4, Pum RNA-binding domain (crystal);Nos ZF domain (crystal) (Drosophila melanogaster?;Drosophila …, UniProt P25822;P25724 1091-1426;289-401, |).
T4 sequence 1: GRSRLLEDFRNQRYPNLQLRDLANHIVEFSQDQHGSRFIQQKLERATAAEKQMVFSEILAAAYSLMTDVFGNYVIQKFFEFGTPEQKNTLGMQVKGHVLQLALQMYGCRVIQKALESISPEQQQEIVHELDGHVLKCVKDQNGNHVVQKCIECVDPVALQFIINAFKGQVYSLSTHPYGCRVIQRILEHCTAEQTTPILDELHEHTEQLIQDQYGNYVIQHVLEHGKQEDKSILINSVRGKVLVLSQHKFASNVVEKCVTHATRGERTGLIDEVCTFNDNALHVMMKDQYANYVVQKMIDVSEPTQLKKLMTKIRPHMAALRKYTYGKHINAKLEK
T4 sequence 2: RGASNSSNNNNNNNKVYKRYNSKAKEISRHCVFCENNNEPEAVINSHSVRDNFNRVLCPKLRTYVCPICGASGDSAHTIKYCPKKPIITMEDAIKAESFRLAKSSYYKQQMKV
Kind of series: X-ray crystallography; 4.0 A; Zn2+; EMSA: 50 mM Tris-HCl pH 7.6, 150 mM NaCl, 2 mM DTT, 2 ug/mL BSA, 0.01% Igepal CA-630, 0.02% bromophenol blue, 20% glycerol, 3 h at 4 C; 1 nM Cy5 RNA or 0.3 nM 32P RNA. The conditions noted are these: protein: recombinant;recombinant; tags: His6-SUMO removed by Ulp1;His6-SUMO removed by Ulp1; copies: 1;1.

The target of series [5] is T5, Pum RNA-binding domain (crystal) (UniProt P25822 1091-1426).
T5 sequence: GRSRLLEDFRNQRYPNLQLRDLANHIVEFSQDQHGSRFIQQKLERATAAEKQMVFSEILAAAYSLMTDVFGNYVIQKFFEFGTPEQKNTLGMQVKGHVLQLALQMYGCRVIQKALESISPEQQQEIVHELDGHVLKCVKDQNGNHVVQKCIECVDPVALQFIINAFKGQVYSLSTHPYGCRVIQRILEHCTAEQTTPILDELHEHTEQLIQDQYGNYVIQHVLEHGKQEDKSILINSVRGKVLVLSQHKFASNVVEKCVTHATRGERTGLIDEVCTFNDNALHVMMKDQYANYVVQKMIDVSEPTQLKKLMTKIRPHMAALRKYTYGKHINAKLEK
Kind of series: X-ray crystallography; 1.14 A; EMSA: 50 mM Tris-HCl pH 7.6, 150 mM NaCl, 2 mM DTT, 2 ug/mL BSA, 0.01% Igepal CA-630, 0.02% bromophenol blue, 20% glycerol, 3 h at 4 C; 1 nM Cy5 RNA or 0.3 nM 32P RNA. The conditions noted are these: protein: recombinant; tags: His6-SUMO removed by Ulp1.

Series [6] deals with T2, Pum PUM-HD WT (EMSA). Kind of series: EMSA; no stable complex, Pum up to 1 uM; EMSA: 50 mM Tris-HCl pH 7.6, 150 mM NaCl, 2 mM DTT, 2 ug/mL BSA, 0.01% Igepal CA-630, 0.02% bromophenol blue, 20% glycerol, 3 h at 4 C; 1 nM Cy5 RNA or 0.3 nM 32P RNA. The conditions noted are these: protein: recombinant; tags: N-terminal 3xFLAG; Halo-tag removed by TEV; label: 5' 32P.

In the case of “Halo-Nos NZ (aa1-373) (domain or fragment)”, the percent repression of the RnLuc WT hb 3´UTR reporter in D.mel-2 cells (endogenous Pum), against Halo-tag alone in series [1] worked out at 14%.

Molecule “Halo-Nos M378A (full-length) (natural protein)” showed a percent repression of the RnLuc WT hb 3´UTR reporter in D.mel-2 cells (endogenous Pum), against Halo-tag alone in series [1] of 29%.

Turning to “Halo-Nos I382A (full-length) (natural protein)”, the percent repression of the RnLuc WT hb 3´UTR reporter in D.mel-2 cells (endogenous Pum), against Halo-tag alone in series [1] amounted to 60%.

In turn, “Halo-Nos I376A (full-length) (natural protein)” registered a percent repression of the RnLuc WT hb 3´UTR reporter in D.mel-2 cells (endogenous Pum), against Halo-tag alone in series [1] of 46%.

B1: hb NRE2 +3G RNA (ssRNA)
RNA: AAAUUGGACAUAAGCC
By Kd is commonly meant the free concentration of one partner at which half of the binding sites on the other are occupied at equilibrium, for simple one-to-one binding. Take B1: the binding result in series [2] is on record as “no binding”. Moreover, the Kd in series [3] worked out at 59.9 nM.

B2: CycB NRE RNA 14-nt (crystal) (ssRNA)
RNA: UAUUUGUAAUUUAU
On to B2, for which, in series [4], the binding result is “binds”.

B3: hb PRE2 RNA 8-nt (ssRNA)
RNA: UGUACAUA
For the molecule B3, the binding result in series [5] is reported as “binds”.

B4: CycB NRE RNA (EMSA) (ssRNA)
RNA: UAUUUGUAAUUUAUAUC
B4: the Kd in series [3] turned out to be 12 nM. The binding result in series [6] was “no binding”.
